The results in this text go back to the DeepSol protein solubility set.

This series is described as follows: soluble on expression in E. coli; label from the status in PepcDB or PDB records.
Take “MSELSDEEISLQALYDPSKKVIGDIEDGIFSTPELQPRIKTGIDNLQLVTKLVNQMRLFSSNEQIEDVPTNSLPYLLVPCFLGILHQNLMTEPGLKLDELRKSKIYMRNFLDRLRDLCLITTRLPWEDEDTEEQNLKEKPKLAVEEIRRLKLERHKKKQELKMAELRIQKQLEAVSIDEQNLRELYITQLLFWSERCYEELQAIDDELPLLKMMAERASHPHRHPAPPPATKTVPTLKPFIITRDAQQKQVFGLGYPGIPAMSVDEWYHQKFGHNPQNAPQSSAPAGAEAQESEEEVDDDEARAKAMRWDEYKDDHRRGWGNMHNKG”: the “soluble on expression in E. coli” value is listed as “soluble”.

Take “MEQPKYKRVVLKLSGEALAGKQGFGIQPAVIQSIAKQVKEVVELGVEVAIVVGGGNIWRGKTGSEMGMDRATADYMGMLATVMNALALQDSLEQLGVETRVQTSIEMRQVAEPYIRRRAIRHLEKKRVVIFAAGTGNPYFSTDTTAALRAAEIEADVILMAKNNVDGVYSADPNVDANALKYDELSYLDVIKQGLGVMDSTASSLCMDNNIPLIVFSIMEEGNIKRAVLGENIGTIVRGK”: the “soluble on expression in E. coli” value was “not soluble”.

As for “MPILNLNNFLAALGNTPDYGRLFARAEHLAQVQKHLLNAVPFQLRNQCTVGQYTADGLLVIYAGNGTTATRLRHLAPSIRQKMNNAGVKVENIRFSIQPQLHSLESGNVREITRSLSQTAIEHLDKLSDSLPAGSPLQSSLAALLANSRRK”, the “soluble on expression in E. coli” value is given as “not soluble”.

With “MSLCQLLGMNCNTPTDIMFSFEGFRRRGGITDHHADGFGIGFFEGKGVRLFHDDKPSVNSPVADLVRAYQIKSENVIAHIRKASQGQTSLANTHPFMREMWGGYWLFAHNGHLIDFFPEQGEFFHPVGTTDSERAFCHILNRLRTRFAARPDDDTLFDAIAGLTHEIRKFGLFNFMLSDGIALFAHASTLLHYIVRQAPFGKEGHHHHHH”, the “soluble on expression in E. coli” value was “not soluble”.

Regarding “SDSSAVITQISKEEARGPLRGKGDQKSAASQKPRSRGILHSLFCCVCRDDGEALPAHSGAPLLVEENGAIPKQTPVQYLLPEAKAQDSDKICVVIDLDETLVHSSFKPVNNADFIIPVEIDGVVHQVYVLKRPHVDEFLQRMGELFECVLFTASLAKYADPVADLLDKWGAFRARLFRESCVFHRGNYVKDLSRLGRDLRRVLILDNSPASYVFHPDNAVPVASWFDNMSDTELHDLLPFFEQLSRVDDVYSVLRQPRPGS”, the “soluble on expression in E. coli” value is “soluble”.

Regarding “AKDWFVAVFANMAHNENKITKISDSLKEYNKRVQEKYAKYDSGKGDSKYSETYLQYVEGGSLTSIFGVRSLGINPADGKEIYLRPDGTITYDWNAADQVVIGNEEPKLQGTFGFNLRWKQFSLYSTFMYEFGGQRYNSTLVSKVENAHIQSSNVDRRVLTGRWQKPGDCTPYGRLQTDGVVAVTRPTSRFIQDYNVLTFNSLTLGYDFNAEWLKKARIGLLRVELSGNDLFRVATVRAERGLDYPYSRSFAASVKMSF”, the “soluble on expression in E. coli” value is “not soluble”.

Regarding “MGSDKIHHHHHHMLDIKYYVLIDAIATHGTVHDAAAAIGITQPAATHRIREMERRLGVALFHREGRRLTLSASGERLLDTAHAVLPQLRNAELEAWQLARRAEPALRLGIGPYDTFSRAIPHLYDQHERDIDLVRLPMADMTTALLANRVDMICMIEVPSQRGIAHQLLFEEPLVAVLPPDHPDAQSDTIPAEVFDRGRHFTYSITPESGHEFEHFFQPAGVYPSHMVQIESVALILELVAAGKGVSILSRWAARDAHQAGHVVMRPLAGDIPRIPWYLAYTQTPHIAAVAEPLADTLRHLYRADE”, the “soluble on expression in E. coli” value is reported as “not soluble”.

Regarding “MGSDKIHHHHHHMQKDKIKTDWSHGENPEDYKCCVAFHGHDCPGLAVGYRAAQAALAALCGERAEDEELVAIVETDACGVDALQVLTGCTFGKGNLIYQDHGKHVFTLIERKSGRGVRVALKAGVMEMNERHLTLMEKVHQMTATPHETAEFWKIHSQKALEILQKPIETLFNIQPINRTLPPKARREPSRLCARCGEPAMGSKLVVLDGREVCRDCLQPEER”, the “soluble on expression in E. coli” value is reported as “not soluble”.

In the case of “GPGSMADYLREKVLESLGISFRETQNCRRWITEVTNMIWEAQPAELRTALCWTTPLGLVVRQPYKVRKEITLFTPHGCSRIPGDAFSAASRKQLTAIAPNLIHSLDATHLAMTAIEMQNLGLSMMAVHDSYWTYACDLPVLSKVLRQQFVTLYSKYDPLWELKEQWEEAYFMDLRRHGTLLPDPPKRGDLDLSVVLDSPYFFS”, the “soluble on expression in E. coli” value is “not soluble”.

For the sequence “KAAPEDVRMIMIDPKMLELSIYEGIPHLLAPVVTDMKLAANALNWCVNEMEKRYRLMSFMGVRNLAGFNQKIAEAAARGEKIGNPFSLTPDDPEPLEKLPFIVVVVDEFADLMMTAGKKIEELIARLAQKARAAGIHLILATQRPSVDVITGLIKANIPTRIAFQVSSKIDSRTILDQMGAENLLGQGDMLFLLPGTAYPQRVHGAFASDEEVHRVVEYLKQFGEPDYVDDILSGGGSEELPGIGRSGDDETDPMYDEAVSVVLKTRKASISGVQRALRIGYNRAARLIDQMEAEGIVSAPEHNGNRTILVPLDNA”, the “soluble on expression in E. coli” value was “not soluble”.

Take “MSDDLSAFFAKKKDKKKKSAVKIEEVGQALERRAKRQEEYEQESEDVSEKRVEEEKAVNPNEESEWIEYGESQGRLDGLKIKDMGLESEQDQVNNEEPEDREVHETKTWGQVSSEKKATEEPEQAVTISDKAMAAAYKPPAMRRPGAPYRPRAAAANLDMGSDAAFPSLADASKIEKNKKEESKSPGGWVKAGSGGAWPGSSGPSSSGSSRSYPTTAGSGRDSALAALKMMSAANPAPARNEPAPAPAAAAPASSGAAKAGSYVPPHLRKNQ”: the “soluble on expression in E. coli” value was “not soluble”.

On to “MEMRELVGQFVERMQVLRHLVPILPDEQLYVRFESDDETALLLIGKESAARGMENDERKTLTVRGSKEALASLLNGELKLQQLVRLREVHVSGSFRQLLLLESLLHLAKPYRHVG”, for which the “soluble on expression in E. coli” value is given as “not soluble”.

In the case of “MRLRLALFSSLLAATFAITGCDQSSETPDNAATISIEHAQGTTLVPLNPQKVVILNPSVLDNADALHIKVAGVPQTSTHLPAFLSKYSGPEYMNTGTLFEPDYEALSQAKPDLIIAGGRAQDAYNKLSAIAPTIALDVDTQHFTQSLTQRTEQLASIFGKEEEAKTLLGNFSSQVNAIKQKSANAGSAMVLMISGGKMSAYTPGSRFGFIFDELGFTPAATFAESGRHGNVVTSEFILNANPDWLFVLDRDNAIGRTEGQSAQQVLDNPLIHKTKAWQNDRIVYLDSASLYIAGGVQSYTQLMNKVSAILDKPVSEQ”, the “soluble on expression in E. coli” value is on record as “not soluble”.

For “PLEKTVRLHSSSGTTGNPTVILHTQKDLDEWANAVARCLYMVGLRPGDIFQNSSGYGMFTGGLGFQYGAERLGMLTVPAAAGNTKRQLKFISDFGTTALHAIPSYAARMYEIMQEMGIDPRRDTKLRTLIIGAEPHSEEQRRRIEDMLGVKAYNSFGMSEMCGPGVAFECQEQNGLHIW”, the “soluble on expression in E. coli” value is “not soluble”.

In the case of “MQIKILATSDMHGYIMPTSYSEKKMDLPFGTAKAATMLKKLRASAKGPVFQIENGDFIQGSPLSYYVRKAETHSVAAITKIINQMNYDVSILGNHEFNYGLDYLKETIASYQQPVLAANILGKDGQPYFGQPYVIIEKQGVKVAILGVTTQYIPHWEQPATVKDLTFKSVVETAAEYVPKLREEADLVVVAYHGGFEKDLETGEPTELLTGENEGYDLLEKVPGIDALVTGHQHREIATKLNGIPVIQPGFRGAFVGEITLEIEPMAKGYHVIGSDAAIHPVGNEQPDTEVLALTTALHDEVEEWLDQPVGNVEGDMTIQNPNAVRLKEHPYIEFINNVQMASSGTDISGTALFNNEGKGFNNQITMRDIITNYIYPNTLAVLRVTGQDLREALEQSATYFVLEKGQPIFNPKYVDPKPQYYNYDMYEGIEYTLDLRQPFGERVTKLNYHGKAVQAEDVLEIVTNQYRAVGGGNYQMFQPEKIIREIQIDMTELIAEYLKKHPIIQASTNDNFKVIW”, the “soluble on expression in E. coli” value is “not soluble”.

With “MNLDAPRVLVLNAAYEVLGLASIKRAVLLVLGGGAEMVSESGLYLNTPSTRIPVPSVVRLKRMVRRRPGRVPLNRRNVLRRDRYTCQYCGQKGGELTVDHVLPKSRGGKSTWDNLVAACRSCNLRKGDRTPEEAGMRLLRPPKPPRVPLFLLDLKEVPPDWRPFVEGLLGLEHHHHHH”, the “soluble on expression in E. coli” value is recorded as “not soluble”.

For “MDITEKLRLITRNAEEVVTEEELRQLIETKEKPRAYVGYEPSGEIHLGHMMTVQKLMDLQEAGFEIIVLLADIHAYLNEKGTFEEIAEVADYNKKVFIALGLDESRAKFVLGSEYQLSRDYVLDVLKMARITTLNRARRSMDEVSRRKEDPMVSQMIYPLMQALDIAHLGVDLAVGGIDQRKIHMLARENLPRLGYSSPVCLHTPILVGLDGQKMSSSKGNYISVRDPPEEVERKIRKAYCPAGVVEENPILDIAKYHILPRFGKIVVERDAKFGGDVEYASFEELAEDFKSGQLHPLDLKIAVAKYLNMLLEDARKRLGVSV”, the “soluble on expression in E. coli” value is reported as “soluble”.

In the case of “MRKICCLLFAVFILCISASCYQRKETRISQPVIMPAIQSPEDIDDYIGEKGYEILESKGKTEEYTLDKKRVYNNWQIWAVQYPEPDHYLGKEISIYSYIIRNHPLDDKSPNKKTYLSVMICENTIIGGYSSPYYEEKDISLVPIGGVYSLEGKNFEEIKNINFDRWRKRFIKKYE”, the “soluble on expression in E. coli” value is reported as “not soluble”.

On to “MGSDKIHHHHHHMDLNALTLLVDILDAGNLSKAAQRLKMSRANVSYRLNQLEKSIGLQLVRRTTRRIEPTEIGLRLYEHGRRIQSELFAAREAVTTLGQDLQGRVRLSVPSGYGQLVMSNWLIAFKRLYPGIVLDVVFENRIEDLMRDEVDIAVRVMSEPPQNLVARDMGAVRYVACASPGFAATHGMPTELGQLFDAPVITSTVVGRQLRVAAYLGDERHEVLLEPTLISENFLFLRQAILAGLGVGIVPDYVVHDDVRRGAVVTTLDAYRLSIFGTHMYMLYMPNRHHTRATSTFIDFMLEEARNAGRGG”, for which the “soluble on expression in E. coli” value is listed as “not soluble”.

In the case of “MPPKKVSPGITVILIDAGSNMSVKDTETGKSAFENAINAADWIVSRKLFSKDPELFSVMAYNLDPKEYKTEVGGQTFNGVQCQNEKFTPASFDHLKFITKELQQNTEMIDPNFFKGVLGAVAVLKDQIESYPNPSGITLIVLTNGLNENIRQENFDLLVEAVSESNADLMIIGIDENPEYPASRVAELAETLEGRTYTFQNVAKMLSTFQARQKSERKYNKMWDIAPGIHLPVIFALKSEKSTALLKFKNADSEGNEMVRLEQMHVETDEVAPKDEFKSPVLEEKPKFQKNFKPVENIKTMHGSEILNFLKSIINASGYNFGKSVIMMDPEYLKEKYNDHNFNEGQTGGVLKLIQFTKRANILDSYLLDASAKTVLPALNSPKSGATKATVSLIEAMLSLRVAAICRYTFHAKSHVQLIALLPHQDEETGVFYLRSVKLPFSDDMRTLKFPKFSFDEEDEDLNKPTVAQLSAVDDLIDCMQLQEDEISSLVEGGMSDPKLQMQCHFLKSLVLHPNDTFENHSNRTNQILDQIMAPKRRVEAEHPEIFQKLGREFNLQPIQKTKRERVTVEPEDLQTMISEWTEKKQNMTQPDEVDDGASQKKKKKPNAKKLTRKEEVQMDIMEDGGASRVCSKILEMISNTCKFQPNGAVTEFFTLLVNELNVIRSVFVENSKCDEFNELLKKLKDEEDFEPFAEVLSEEKSCNPIDSSEVSMSEVSVANAAEFWEED”, the “soluble on expression in E. coli” value was “not soluble”.

“MAPLGASPRLVLLFSGKRKSGKDFVTERLKSRLGGNICALLRLSGPLKEEYAREHGLDFQRLLDASTYKETYRRDMICWGEQKRQADPGFFCRKIVEGVSQPIWLVSDTRRTSDIQWFQEAYGAVIQTVRVVASEQSRQQRGWVFTLGVDDAESECGLDNFGNFDWVIENHGDEQCLEDQLEHLLGFIQAKL”: the “soluble on expression in E. coli” value is “soluble”.

As to “MGSDKIHHHHHHAQVTPFTYFNVDWQFNAPISNNFANKASGWGMNFEGGYYVLPDLSIGAFINYHTNNEYISRQTLPISNSAALTTDQQHSVFQLPFGFATHYRFSDGACQPYIGLKLGANYTKMSSDFYIYEVKDNTWGFYVSPEVGVNIYPWTNSIGFHLAAFYSYSTNKGTVFNYDMDKLNNFGFRLGVAF”, the “soluble on expression in E. coli” value was “not soluble”.
